From patent US20250114463A1, “LIVER-TARGETED DRUG AND USE THEREOF” (HANMI PHARM. CO., LTD., priority 2021, published 2025)
Positions count from the first letter of the chain named. Bridges are numbered along the chain shown (N, C = ends). Where no end group is shown, it is not given here. [ ]: non-standard residue; d: D form. Aib = CC(C)(N)C(=O)O

T1: human GIP receptor (human, UniProt P48546 22-466)
T1 sequence (looked up): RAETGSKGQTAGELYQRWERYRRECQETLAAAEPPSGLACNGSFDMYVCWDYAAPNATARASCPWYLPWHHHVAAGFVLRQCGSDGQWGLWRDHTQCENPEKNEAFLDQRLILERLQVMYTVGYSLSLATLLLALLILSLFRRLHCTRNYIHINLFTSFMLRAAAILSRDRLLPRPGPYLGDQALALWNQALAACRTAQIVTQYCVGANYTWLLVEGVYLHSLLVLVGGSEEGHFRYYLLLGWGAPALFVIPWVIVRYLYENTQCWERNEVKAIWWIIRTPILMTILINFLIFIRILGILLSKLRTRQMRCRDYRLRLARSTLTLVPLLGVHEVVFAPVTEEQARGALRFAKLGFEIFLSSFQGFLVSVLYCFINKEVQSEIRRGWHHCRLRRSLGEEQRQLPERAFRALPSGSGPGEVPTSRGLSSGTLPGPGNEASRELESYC

B1: triple agonist of SEQ ID NO: 4 (peptide)
peptide: HXQGTFTSDVSSYLLGQQQKEFIAWLVKGC
HELM: PEPTIDE1{H.[Aib].Q.G.T.F.T.S.D.V.S.S.Y.L.L.G.Q.Q.Q.K.E.F.I.A.W.L.V.K.G.C.[am]}$$$$V2.0; N-terminus assumed
SMILES: CC[C@H](C)[C@H](NC(=O)[C@H](Cc1ccccc1)NC(=O)[C@H](CCC(=O)O)NC(=O)[C@H](CCCCN)NC(=O)[C@H](CCC(N)=O)NC(=O)[C@H](CCC(N)=O)NC(=O)[C@H](CCC(N)=O)NC(=O)CNC(=O)[C@H](CC(C)C)NC(=O)[C@H](CC(C)C)NC(=O)[C@H](Cc1ccc(O)cc1)NC(=O)[C@H](CO)NC(=O)[C@H](CO)NC(=O)[C@@H](NC(=O)[C@H](CC(=O)O)NC(=O)[C@H](CO)NC(=O)[C@@H](NC(=O)[C@H](Cc1ccccc1)NC(=O)[C@@H](NC(=O)CNC(=O)[C@H](CCC(N)=O)NC(=O)C(C)(C)NC(=O)[C@@H](N)Cc1c[nH]cn1)[C@@H](C)O)[C@@H](C)O)C(C)C)C(=O)N[C@@H](C)C(=O)N[C@@H](Cc1c[nH]c2ccccc12)C(=O)N[C@@H](CC(C)C)C(=O)N[C@H](C(=O)N[C@@H](CCCCN)C(=O)NCC(=O)N[C@@H](CS)C(N)=O)C(C)C
B2: triple agonist of SEQ ID NO: 36 (peptide)
peptide: H[Aib]QGTFTSDYSKYLCEKRQKEFVQWLLNGGPSSGAPPPSG
modifications: bridge 16-20; not fully specified (C-terminus)
B3: triple agonist of SEQ ID NO: 38 (peptide)
peptide: XXQGTFTSDKSSYLDERAAQDFVQWLLDGGPSSGAPPPSS
HELM: PEPTIDE1{[O=C(Cc1c[nH]cn1)[*:2]].[Aib].Q.G.T.F.T.S.D.K.S.S.Y.L.D.E.R.A.A.Q.D.F.V.Q.W.L.L.D.G.G.P.S.S.G.A.P.P.P.S.S.[am]}$$$$V2.0
SMILES: CC(C)C[C@H](NC(=O)[C@H](CC(C)C)NC(=O)[C@H](Cc1c[nH]c2ccccc12)NC(=O)[C@H](CCC(N)=O)NC(=O)[C@@H](NC(=O)[C@H](Cc1ccccc1)NC(=O)[C@H](CC(=O)O)NC(=O)[C@H](CCC(N)=O)NC(=O)[C@H](C)NC(=O)[C@H](C)NC(=O)[C@H](CCCNC(=N)N)NC(=O)[C@H](CCC(=O)O)NC(=O)[C@H](CC(=O)O)NC(=O)[C@H](CC(C)C)NC(=O)[C@H](Cc1ccc(O)cc1)NC(=O)[C@H](CO)NC(=O)[C@H](CO)NC(=O)[C@H](CCCCN)NC(=O)[C@H](CC(=O)O)NC(=O)[C@H](CO)NC(=O)[C@@H](NC(=O)[C@H](Cc1ccccc1)NC(=O)[C@@H](NC(=O)CNC(=O)[C@H](CCC(N)=O)NC(=O)C(C)(C)NC(=O)Cc1c[nH]cn1)[C@@H](C)O)[C@@H](C)O)C(C)C)C(=O)N[C@@H](CC(=O)O)C(=O)NCC(=O)NCC(=O)N1CCC[C@H]1C(=O)N[C@@H](CO)C(=O)N[C@@H](CO)C(=O)NCC(=O)N[C@@H](C)C(=O)N1CCC[C@H]1C(=O)N1CCC[C@H]1C(=O)N1CCC[C@H]1C(=O)N[C@@H](CO)C(=O)N[C@@H](CO)C(N)=O
B4: triple agonist of SEQ ID NO: 35 (peptide)
peptide: H[Aib]QGTFTSDYSIAMDEIHQKDFVNWLLNTKC
modifications: bridge 16-20; not fully specified (C-terminus)
B5: triple agonist of SEQ ID NO: 1 (peptide)
peptide: B1 peptide with L15D, Q18A, Q19A
HELM: PEPTIDE1{H.[Aib].Q.G.T.F.T.S.D.V.S.S.Y.L.D.G.Q.A.A.K.E.F.I.A.W.L.V.K.G.C.[am]}$$$$V2.0; N-terminus assumed
SMILES: CC[C@H](C)[C@H](NC(=O)[C@H](Cc1ccccc1)NC(=O)[C@H](CCC(=O)O)NC(=O)[C@H](CCCCN)NC(=O)[C@H](C)NC(=O)[C@H](C)NC(=O)[C@H](CCC(N)=O)NC(=O)CNC(=O)[C@H](CC(=O)O)NC(=O)[C@H](CC(C)C)NC(=O)[C@H](Cc1ccc(O)cc1)NC(=O)[C@H](CO)NC(=O)[C@H](CO)NC(=O)[C@@H](NC(=O)[C@H](CC(=O)O)NC(=O)[C@H](CO)NC(=O)[C@@H](NC(=O)[C@H](Cc1ccccc1)NC(=O)[C@@H](NC(=O)CNC(=O)[C@H](CCC(N)=O)NC(=O)C(C)(C)NC(=O)[C@@H](N)Cc1c[nH]cn1)[C@@H](C)O)[C@@H](C)O)C(C)C)C(=O)N[C@@H](C)C(=O)N[C@@H](Cc1c[nH]c2ccccc12)C(=O)N[C@@H](CC(C)C)C(=O)N[C@H](C(=O)N[C@@H](CCCCN)C(=O)NCC(=O)N[C@@H](CS)C(N)=O)C(C)C
B6: triple agonist of SEQ ID NO: 37 (peptide)
peptide: H[Aib]QGTFTSDYSKYLDECRQKEFVQWLLNGGPSSGAPPPSG
modifications: bridge 16-20; not fully specified (C-terminus)
B7: triple agonist of SEQ ID NO: 40 (peptide)
peptide: HXQGTFTSDKSKYLDERACQDFVQWLLDGGPSSGAPPPS
HELM: PEPTIDE1{H.[Aib].Q.G.T.F.T.S.D.K.S.K.Y.L.D.E.R.A.C.Q.D.F.V.Q.W.L.L.D.G.G.P.S.S.G.A.P.P.P.S.[am]}$$$$V2.0; N-terminus assumed
SMILES: CC(C)C[C@H](NC(=O)[C@H](CC(C)C)NC(=O)[C@H](Cc1c[nH]c2ccccc12)NC(=O)[C@H](CCC(N)=O)NC(=O)[C@@H](NC(=O)[C@H](Cc1ccccc1)NC(=O)[C@H](CC(=O)O)NC(=O)[C@H](CCC(N)=O)NC(=O)[C@H](CS)NC(=O)[C@H](C)NC(=O)[C@H](CCCNC(=N)N)NC(=O)[C@H](CCC(=O)O)NC(=O)[C@H](CC(=O)O)NC(=O)[C@H](CC(C)C)NC(=O)[C@H](Cc1ccc(O)cc1)NC(=O)[C@H](CCCCN)NC(=O)[C@H](CO)NC(=O)[C@H](CCCCN)NC(=O)[C@H](CC(=O)O)NC(=O)[C@H](CO)NC(=O)[C@@H](NC(=O)[C@H](Cc1ccccc1)NC(=O)[C@@H](NC(=O)CNC(=O)[C@H](CCC(N)=O)NC(=O)C(C)(C)NC(=O)[C@@H](N)Cc1c[nH]cn1)[C@@H](C)O)[C@@H](C)O)C(C)C)C(=O)N[C@@H](CC(=O)O)C(=O)NCC(=O)NCC(=O)N1CCC[C@H]1C(=O)N[C@@H](CO)C(=O)N[C@@H](CO)C(=O)NCC(=O)N[C@@H](C)C(=O)N1CCC[C@H]1C(=O)N1CCC[C@H]1C(=O)N1CCC[C@H]1C(=O)N[C@@H](CO)C(N)=O
B8: triple agonist of SEQ ID NO: 34 (peptide)
peptide: H[Aib]QGTFTSDYSKYLDEKRQKEFVNWLLAQKC
modifications: bridge 16-20; not fully specified (C-terminus)
B9: triple agonist of SEQ ID NO: 39 (peptide)
peptide: HXQGTFTSDYSKYLDGQHAQCFVAWLLAGGGPSSGAPPPS
HELM: PEPTIDE1{H.[Aib].Q.G.T.F.T.S.D.Y.S.K.Y.L.D.G.Q.H.A.Q.C.F.V.A.W.L.L.A.G.G.G.P.S.S.G.A.P.P.P.S.[am]}$$$$V2.0; N-terminus assumed
SMILES: CC(C)C[C@H](NC(=O)[C@H](CC(C)C)NC(=O)[C@H](Cc1c[nH]c2ccccc12)NC(=O)[C@H](C)NC(=O)[C@@H](NC(=O)[C@H](Cc1ccccc1)NC(=O)[C@H](CS)NC(=O)[C@H](CCC(N)=O)NC(=O)[C@H](C)NC(=O)[C@H](Cc1c[nH]cn1)NC(=O)[C@H](CCC(N)=O)NC(=O)CNC(=O)[C@H](CC(=O)O)NC(=O)[C@H](CC(C)C)NC(=O)[C@H](Cc1ccc(O)cc1)NC(=O)[C@H](CCCCN)NC(=O)[C@H](CO)NC(=O)[C@H](Cc1ccc(O)cc1)NC(=O)[C@H](CC(=O)O)NC(=O)[C@H](CO)NC(=O)[C@@H](NC(=O)[C@H](Cc1ccccc1)NC(=O)[C@@H](NC(=O)CNC(=O)[C@H](CCC(N)=O)NC(=O)C(C)(C)NC(=O)[C@@H](N)Cc1c[nH]cn1)[C@@H](C)O)[C@@H](C)O)C(C)C)C(=O)N[C@@H](C)C(=O)NCC(=O)NCC(=O)NCC(=O)N1CCC[C@H]1C(=O)N[C@@H](CO)C(=O)N[C@@H](CO)C(=O)NCC(=O)N[C@@H](C)C(=O)N1CCC[C@H]1C(=O)N1CCC[C@H]1C(=O)N1CCC[C@H]1C(=O)N[C@@H](CO)C(N)=O

Legend:
Experiment in all cases: cell-based or functional assay
human GLP-1 receptor = human GLP-1 receptor (human, UniProt P43220 24-463)
human GIP receptor = biological target: T1, human GIP receptor
human GCG receptor = human GCG receptor (human, UniProt P47871 26-477)
human GCG receptor, sequence (P47871 26-477): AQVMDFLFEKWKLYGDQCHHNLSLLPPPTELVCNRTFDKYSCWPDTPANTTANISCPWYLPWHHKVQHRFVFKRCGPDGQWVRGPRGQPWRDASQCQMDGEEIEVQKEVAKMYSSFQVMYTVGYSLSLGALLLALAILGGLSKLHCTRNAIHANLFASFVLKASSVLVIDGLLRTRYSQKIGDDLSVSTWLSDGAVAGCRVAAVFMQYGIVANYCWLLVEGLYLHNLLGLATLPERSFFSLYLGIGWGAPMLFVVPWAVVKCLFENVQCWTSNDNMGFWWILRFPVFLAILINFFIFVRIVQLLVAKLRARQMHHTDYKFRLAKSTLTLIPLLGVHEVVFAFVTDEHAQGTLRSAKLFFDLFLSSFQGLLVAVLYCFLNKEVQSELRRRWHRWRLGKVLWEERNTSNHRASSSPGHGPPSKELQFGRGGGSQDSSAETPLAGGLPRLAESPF

| Binder | in vitro Activity Compared to Native Peptide (%), vs GLP-1 (human GLP-1 receptor) [%] | in vitro Activity Compared to Native Peptide (%), vs GIP (human GIP receptor) [%] | in vitro Activity Compared to Native Peptide (%), vs Glucagon (human GCG receptor) [%] |
| --- | --- | --- | --- |
| B1 | 8.5 | < 0.1 | < 0.1 |
| B2 | 37.4 | 0.2 | 0.39 |
| B3 | 2.3 |  |  |
| B4 | 7.5 | 1.3 | < 0.1 |
| B5 | 3.2 | < 0.1 | < 0.1 |
| B6 | 236 | 2.2 | 6.21 |
| B7 | 75.2 | < 0.1 | < 0.1 |
| B8 | 19.1 | 0.6 | 0.92 |
| B9 | 13.9 | < 0.1 | 0.53 |
